Measured values taken from article PMC8437434, “Hsp40s play complementary roles in the prevention of tau amyloid formation” (eLife, 2021).

Target: T1, full-length tau (2N4R), C322S (UniProt P10636-8 1-441, C322S)
T1 construct: microtubule-associated protein tau, longest splice isoform 2N4R, with C322S; 15N-labelled for NMR; also called 15N-tau; source: E. coli BL21 (DE3), purified (Ni-NTA, tag cleaved, Superdex 75); not shown: His6, N-terminal, cleaved
Assay: NMR titration; 1H-15N HSQC-TROSY of 200 µM 15N-tau, tau^4R or tau^4R P301S/P301L alone and with twofold excess (400 µM) of chaperone; intensity ratios I/I0; 50 mM HEPES pH 7.0, 50 mM KCl, 1 mM DTT, 25 °C; no heparin
Conditions: both partners purified

T1 sequence (P10636 other isoform, or with tags, fused parts or gaps C322S | C322S | C322S C322S): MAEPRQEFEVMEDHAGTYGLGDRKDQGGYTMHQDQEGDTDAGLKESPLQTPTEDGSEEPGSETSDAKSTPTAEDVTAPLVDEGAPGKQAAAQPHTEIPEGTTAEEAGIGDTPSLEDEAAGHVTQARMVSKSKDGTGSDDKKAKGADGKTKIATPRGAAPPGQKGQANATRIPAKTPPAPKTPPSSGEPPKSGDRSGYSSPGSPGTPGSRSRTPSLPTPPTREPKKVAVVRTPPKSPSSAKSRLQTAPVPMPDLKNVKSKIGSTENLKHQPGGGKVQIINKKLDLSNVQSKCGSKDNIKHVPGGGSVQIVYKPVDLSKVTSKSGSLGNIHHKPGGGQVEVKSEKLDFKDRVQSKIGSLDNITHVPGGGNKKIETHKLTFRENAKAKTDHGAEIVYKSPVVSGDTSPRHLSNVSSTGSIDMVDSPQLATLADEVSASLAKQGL

binding result: binds
B1: DNAJA2 (natural protein)
chain: not shown
notes: DNAJA2, class A J-domain protein; homodimer (90 kDa dimer as printed); also called class A JDP; Hsp40; source: E. coli BL21 (DE3), purified (Ni-NTA, tag cleaved, Superdex 200); not shown: His6, N-terminal, cleaved
